From US20240369535A1, “METHODS AND MATERIALS FOR DETERMINING pGC TARGET DOSAGE” (Mayo Foundation for Medical Education and Research, priority 2021, published 2024)

Legend:
[1] = target: human pGC-A receptor (human) (UniProt P16066); assay: cell-based or functional assay
[2] = target: T1, human GC-A (Homo sapiens, UniProt P16066); assay: Ex vivo MCUF-651 therapeutic potency assay with human plasma (Example 2), HEK293 overexpressing human GC-A; format: cell-based
T1 construct: expressed in transfected cells
T1 sequence (P16066 33-1061): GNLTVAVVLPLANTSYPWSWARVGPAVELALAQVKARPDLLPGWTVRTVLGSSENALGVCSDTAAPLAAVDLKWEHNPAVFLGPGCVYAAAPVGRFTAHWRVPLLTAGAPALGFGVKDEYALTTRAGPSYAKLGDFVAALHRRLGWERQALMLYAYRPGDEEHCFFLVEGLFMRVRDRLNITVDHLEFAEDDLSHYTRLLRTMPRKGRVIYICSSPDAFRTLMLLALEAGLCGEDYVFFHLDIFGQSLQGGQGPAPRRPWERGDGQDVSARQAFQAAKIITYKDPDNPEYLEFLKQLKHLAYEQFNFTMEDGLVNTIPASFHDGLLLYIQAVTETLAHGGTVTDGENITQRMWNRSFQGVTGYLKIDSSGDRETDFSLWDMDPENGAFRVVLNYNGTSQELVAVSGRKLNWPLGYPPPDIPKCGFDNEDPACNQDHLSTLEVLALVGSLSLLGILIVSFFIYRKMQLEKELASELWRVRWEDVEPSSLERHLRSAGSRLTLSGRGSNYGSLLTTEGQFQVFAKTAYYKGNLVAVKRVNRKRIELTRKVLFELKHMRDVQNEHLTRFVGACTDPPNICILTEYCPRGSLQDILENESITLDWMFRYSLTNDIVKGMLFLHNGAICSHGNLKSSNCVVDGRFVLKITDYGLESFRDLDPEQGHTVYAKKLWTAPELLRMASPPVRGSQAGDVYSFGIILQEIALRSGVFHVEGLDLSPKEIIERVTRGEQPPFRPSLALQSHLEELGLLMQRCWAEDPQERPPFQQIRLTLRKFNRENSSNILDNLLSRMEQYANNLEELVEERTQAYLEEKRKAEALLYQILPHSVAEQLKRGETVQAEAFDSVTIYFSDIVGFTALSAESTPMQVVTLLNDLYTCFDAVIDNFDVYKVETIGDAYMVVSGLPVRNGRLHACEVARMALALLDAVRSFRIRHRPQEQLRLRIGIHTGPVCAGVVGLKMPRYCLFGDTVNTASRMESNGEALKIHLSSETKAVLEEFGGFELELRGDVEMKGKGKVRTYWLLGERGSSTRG
Experimental: Ex Vivo MCUF-651 Therapeutic Potency Assay with Human Plasma from Normal Subjects and Patients with Hypertension and Heart Failure: Stored human plasma samples from normal subjects and patients with HT and HF were utilized. The details of the recruitment of these participants were as described elsewhere (Reginauld et al., supra; and Ferrario et al., Hypertension 77:882-890, 2021). […] HEK293 overexpressing human GC-A were cultured and grown as described above. Cells were grown in 48-well plates to 80-90% confluence. On the day of the experiment, cells were pre-incubated with MCUF-651 at doses of 1, 5, or 10 μM or with vehicle (Veh) in 250 μL treatment buffer (as described above) for 5 minutes at 37° C. 25 μL of human plasma was then added and incubated for additional 10 minutes. Cells were then washed with PBS once and lysed with 0.1 M HCl, and intracellular cGMP levels were measured in the lysate using a commercial cGMP ELISA kit (Enzo Life Sciences, Farmingdale, NY) as instructed by the manufacturer.

[3] = target: T2, human pGC-A (Homo sapiens, UniProt P16066); assay: MCUF-651/NP/pGC-A/cGMP potency assay (Example 5), HEK293 cells overexpressing human pGC-A; format: cell-based; details: for cGMP potency: particularly at 5 and 10 μM
T2 construct: expressed in transfected cells
T2 sequence (P16066 33-1061): T1 sequence (P16066 33-1061)
Experimental: (§1) In vitro Cell Culture: HEK 293 cells were stably transfected with human pGC-A or pGC-B using LIPOFECTAMINE™ (Invitrogen, Grand Island, NY) (Chen et al. 2020, supra). Transfected cells (HEK/GC-A or (HEK/GC-B) were maintained in DMEM supplemented with 10% FBS and 250 μg/ml G418. Cells in 48-well plates were grown to 80-90% confluency and then incubated in Hanks Balanced Salt Solution (HBSS, Invitrogen) containing 20 mM HEPES, 0.1% BSA, and 0.5 mM 3-isobutyl-1-methylxanthine (IBMX, Sigma).
MCUF-651/NP/pGC-A/cGMP Potency Assay: Human plasma samples from patients with HT (N=6), ADHF (N=6), and CKD (N=5) were utilized. The details of the recruitment of participants are described above. Stably transfected HEK293 cells engineered to overexpress human pGC-A were cultured (as described above) and grown in 48-well plates to 80-90% confluence. On the day of the experiment, human plasma was diluted 10× with HBSS. 250 μl of diluted plasma was added together with vehicle (DSMO) or the MCUF-651 small molecule pGC-A positive allosteric modulator at doses of 1, 5, or 10 μM to the HEK/pGC-A cells and incubated for 10 minutes at 37° C. Cells were then washed with PBS once and lysed with 0.1 M HCl, and intracellular cGMP levels were measured in the lysate using a commercial cGMP ELISA kit (Enzo Life Sciences, Farmingdale, NY) as instructed by the manufacturer.

[4] = target: T3, human pGC-B (Homo sapiens, UniProt P20594); assay: NP/pGC-B/cGMP potency assay (Example 5), HEK293 cells overexpressing human pGC-B; format: cell-based; details: ADHF plasma
T3 construct: expressed in transfected cells
T3 sequence (P20594 23-1047): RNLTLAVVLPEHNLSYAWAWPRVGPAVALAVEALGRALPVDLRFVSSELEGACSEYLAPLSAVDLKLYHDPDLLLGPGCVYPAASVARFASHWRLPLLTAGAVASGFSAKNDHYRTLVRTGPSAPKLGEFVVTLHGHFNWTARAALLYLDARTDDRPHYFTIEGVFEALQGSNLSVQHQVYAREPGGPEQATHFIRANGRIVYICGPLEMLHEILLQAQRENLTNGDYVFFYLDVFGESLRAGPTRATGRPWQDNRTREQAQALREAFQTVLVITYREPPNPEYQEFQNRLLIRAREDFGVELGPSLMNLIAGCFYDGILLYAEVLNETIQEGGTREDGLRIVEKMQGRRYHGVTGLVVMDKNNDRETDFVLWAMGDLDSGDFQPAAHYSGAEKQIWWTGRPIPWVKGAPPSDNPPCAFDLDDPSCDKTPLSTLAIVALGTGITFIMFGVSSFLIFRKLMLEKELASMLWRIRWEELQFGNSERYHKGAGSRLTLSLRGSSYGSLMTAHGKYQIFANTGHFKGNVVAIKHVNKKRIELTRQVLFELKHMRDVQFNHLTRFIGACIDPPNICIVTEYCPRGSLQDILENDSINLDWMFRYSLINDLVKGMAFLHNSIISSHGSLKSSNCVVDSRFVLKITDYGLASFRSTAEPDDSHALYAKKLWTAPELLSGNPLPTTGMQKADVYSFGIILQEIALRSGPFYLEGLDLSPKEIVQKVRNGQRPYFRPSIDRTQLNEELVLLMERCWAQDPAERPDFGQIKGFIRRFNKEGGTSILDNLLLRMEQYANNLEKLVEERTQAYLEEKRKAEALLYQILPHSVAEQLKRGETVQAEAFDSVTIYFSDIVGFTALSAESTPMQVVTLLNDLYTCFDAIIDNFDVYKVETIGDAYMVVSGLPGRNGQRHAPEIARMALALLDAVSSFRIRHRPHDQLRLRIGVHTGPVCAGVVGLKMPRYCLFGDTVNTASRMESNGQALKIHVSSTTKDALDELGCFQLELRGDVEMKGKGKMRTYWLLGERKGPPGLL
Experimental: as §1
NP/pGC-B/cGMP Potency Assay: Human plasma samples from patients with ADHF (N=6) were utilized. Stably transfected HEK293 cells engineered to overexpress human pGC-B were cultured (as described above) and grown in 48-well plates to 80-90% confluence. On the day of the experiment, human plasma was diluted 10× with HBSS. Diluted plasma (250 μl) was added together with vehicle (PBS), native CNP (an endogenous pGC-B activator), C53 (a designer CNP analog/pGC-B activator) or CRRL-408 (a designer dual pGC-A and pGC-B activator) at doses of 10^−10, 10^−8, or 10^−7 M to the HEK/GC-B cells and incubated for 10 minutes at 37° C. Afterwards, cells were washed once with PBS and lysed with 0.1M HCl. cGMP was then assayed using an ELISA (Enzo Life Sciences) as described elsewhere (Chen et al. 2018, supra).

[5] = target: T2, human pGC-A; assay: NP/pGC-A/cGMP potency assay (Example 5), HEK293 cells overexpressing human pGC-A; format: cell-based
Experimental: as §1
NP/pGC-A/cGMP Potency Assay: Human plasma samples from patients with HT (N=6), ADHF (N=6), and CKD (N=5) were utilized. Stably transfected HEK293 cells engineered to overexpress human pGC-A were cultured (as described above) and were grown in 48-well plates to 80-90% confluence. On the day of the experiment, human plasma was diluted 10× with HBSS. […] Afterwards, the cells were washed once with PBS and lysed with 0.1M HCl. cGMP was then assayed using an ELISA (Enzo Life Sciences) as described elsewhere (Chen et al. 2018, supra).

[6] = target: T1, human GC-A; assay: NP/GC-A/cGMP potency assay (Example 1): cGMP production in HEK293 cells overexpressing human GC-A; format: cell-based
Experimental: Transfected cells (HEK/GCA) were maintained in Dulbecco Modified Eagle medium (DMEM) supplemented with 10% FBS, and 250 μg/ml G418. Cells in 48-well plates were grown to 80-90% confluency and then incubated in Hanks Balanced Salt Solution (HBSS, Invitrogen) containing 20 mM HEPES, 0.1% BSA and 0.5 mM 3-isobutyl-1-methylxanthine (IBMX, Sigma).
A stable transfected cell line of HEK293 cells engineered to overexpress human GC-A was grown in 48-well plates to 80-90% confluency. […] Studies were repeated with human plasma with or without addition of the designer GC-A activator, MANP, at doses of 10^−10 M and 10^−8 M.

synthetic human BNP (from UniProt P16860 103-134) (ligand)
cGMP in HEK293 cells overexpressing human GC-A; synthetic BNP at the level of ADHF plasma with elevated ANP and BNP (1225.7 pg/mL) [1]: 80.3 pmol/mL | mean cGMP in HEK293 cells overexpressing human GC-A; synthetic BNP at 27 pg/mL (level of healthy plasma) [1]: 4.7 pmol/mL | mean cGMP in HEK293 cells overexpressing human GC-A; synthetic BNP at the level of ANP and BNP deficient ADHF plasma (47.4 pg/mL) [1]: 6.9 pmol/mL

CN(C)CCN1CCCC(C(=O)Nc2nc3c(F)cc(F)cc3s2)C1 (stereo not drawn) [MCUF-651]
generation of cGMP levels ([2]; 1, 5 or 10 μM, plasma from normal subjects, hypertensive and HF patients (all three cohorts)): potentiated | cGMP potency compared between cohorts ([2]; HF plasma, highest circulating ANP and BNP): greatest cGMP potency | cGMP potency ([3]; ADHF plasma with higher circulating ANP and BNP): higher cGMP potency | cGMP potency ([3]; ADHF plasma with lower circulating ANP and BNP): lower cGMP potency | cGMP levels ([3]; ADHF plasma, dose 1 μM): modestly potentiated | cGMP levels ([3]; ADHF plasma, dose 5 μM): markedly potentiated | cGMP levels ([3]; ADHF plasma, dose 10 μM): markedly potentiated | cGMP levels ([3]; CKD plasma, dose 1 μM): no response | cGMP levels ([3]; CKD plasma, dose 5 μM): minimally potentiated | cGMP levels ([3]; CKD plasma, dose 10 μM): minimally potentiated | cGMP levels ([3]; HT plasma, dose 1 μM): modestly potentiated | cGMP levels ([3]; HT plasma, dose 5 μM): markedly potentiated | cGMP levels ([3]; HT plasma, dose 10 μM): markedly potentiated

C-type natriuretic peptide [CNP, reference compound]
cGMP levels ([4]; dose 10^-8 M): markedly potentiated

C53: designer pGC-B activator, 53 amino acid intermediate form of CNP (SEQ ID NO:5) (DLRVDTKSRAAWARLLQEHPNARKYKGANKKGLSKGCFGLKLDRIGSMSGLGC)
cGMP levels ([4]; dose 10^-8 M): markedly potentiated | cGMP levels ([4]; dose 10^-10 M (in a single patient)): modestly potentiated

MANP: designer pGC-A activator, polypeptide SLRRSSCFGGRMDRIGAQSGLGCNSFRYRITAREDKQGWA (SEQ ID NO:1)
cGMP levels ([5]; ADHF plasma, dose 10^-8 M): markedly potentiated | cGMP levels ([5]; ADHF plasma, dose 10^-10 M): modestly potentiated | cGMP levels ([5]; CKD plasma, dose 10^-8 M): markedly potentiated | cGMP levels ([5]; CKD plasma, dose 10^-10 M): modestly potentiated | cGMP levels ([5]; HT plasma, dose 10^-8 M): markedly potentiated | cGMP levels ([5]; HT plasma, dose 10^-10 M): modestly potentiated | mean cGMP level ([6]; healthy plasma + 10^-8 M MANP): 167 ± 14.1 pmol/mL | mean cGMP level ([6]; healthy plasma + 10^-10 M MANP): 45 ± 5.5 pmol/mL | mean cGMP level ([6]; plasma of deficient ANP and BNP ADHF patients + 10^-8 M MANP): 166.9 ± 9.1 pmol/mL | mean cGMP level ([6]; plasma of deficient ANP and BNP ADHF patients + 10^-10 M MANP): 33.8 ± 1.4 pmol/mL | mean cGMP level ([6]; plasma of elevated ANP and BNP ADHF patients + 10^-8 M MANP): 200.8 ± 5.4 pmol/mL | mean cGMP level ([6]; plasma of elevated ANP and BNP ADHF patients + 10^-10 M MANP): 60.4 ± 9.7 pmol/mL

MANP (designer pGC-A activator) (peptide)
cGMP in HEK293 cells overexpressing human GC-A; plasma of ADHF patients with elevated ANP and BNP plus 10^-8 M MANP [1]: 201 pmol/mL | cGMP in HEK293 cells overexpressing human GC-A; plasma of ADHF patients with elevated ANP and BNP plus 10^-10 M MANP [1]: 60.4 pmol/mL

B-type natriuretic peptide [BNP, reference compound]
mean cGMP level ([6]; synthetic peptide alone, concentrations corresponding to ADHF deficient ANP and BNP plasma (ANP 16.8, BNP 47.4 pg/mL), 10 min): 6.9 ± 0.9 pmol/mL | mean cGMP level ([6]; synthetic peptide alone, concentrations corresponding to ADHF elevated ANP and BNP plasma (ANP 350, BNP 1225.7 pg/mL), 10 min): 80.3 ± 16.9 pmol/mL | mean cGMP level ([6]; synthetic peptide alone, concentrations mimicking healthy subject plasma (ANP 25.5, BNP 27 pg/mL), 10 min): 4.7 ± 0.4 pmol/mL
